Conditions in all cases: 20 nM; 72 h
For data set [1], the system named is MCF10A. Description: percent viability (nuclei count relative to siNT); higher = more viable cells. As to the method:
(§1)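 After 72 h, cells were fixed and stained with Hoechst and anti-fibrillarin, and nucleoli per nucleus were counted with CellProfiler. Values are plate-adjusted percent effect for the one-nucleolus and 5+ nucleoli phenotypes, normalised to siNT (0%) and to the positive controls siNOL11 or siKIF11 (100%), as the mean of biological triplicates. Percent viability is the nuclei count relative to siNT.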

Data set [2] deals with MCF10A. Description: 5+ nucleoli phenotype percent effect (relative to siNT 0% and siKIF11 100%); higher = more cells with five or more nucleoli. How it is done:
as §1

Data set [3] has as its system MCF10A. Description: one-nucleolus phenotype percent effect (relative to siNT 0% and siNOL11 100%); higher = more cells with one nucleolus (ribosome biogenesis inhibition). How it is done: as §1

Take “UGCAAAAGUAAUCACAGUUUUU [hsa-miR-548f-5p]”: the percent viability in data set [1] worked out at 75.6%. In addition, the “5+ nucleoli phenotype percent effect” value in data set [2] was 23.9%. In addition, the “one-nucleolus phenotype percent effect” value in data set [3] was -27.5%.
On the same counts, the results for “UGCAAAAGUAAUUGCAGUUUUUG [hsa-miR-548aj-5p]” are 81.8%, 4.35% and -16.2%.
For the sequence “UGCAAAAGUAAUUGCAGUUUUUG [hsa-miR-548g-5p]”, in data set [1], the percent viability was 73.1%. For the same sequence, the “5+ nucleoli phenotype percent effect” value in data set [2] is 3.25%. In addition, in data set [3], the “one-nucleolus phenotype percent effect” value was -17%.
In data set [1], “UGCAAAAGUAAUUGCAGUUUUUG [hsa-miR-548x-5p]” registered a percent viability of 63%. In addition, the “5+ nucleoli phenotype percent effect” value in data set [2] was -24.2%. For the same sequence, the “one-nucleolus phenotype percent effect” value in data set [3] was -9.86%.
For the sequence UGCAACGAACCUGAGCCACUGA [hsa-miR-891a], in data set [1], the percent viability was 57.7%. Also, in data set [2], the “5+ nucleoli phenotype percent effect” value was 1.67%. Further, in data set [3], the “one-nucleolus phenotype percent effect” value is -1.85%.
On the same counts, the results for UGCAACUUACCUGAGUCAUUGA [hsa-miR-891b] are 41.4%, -7.44% and 1.72%.
In data set [1], UGCAAGACGGAUACUGUCAUCU [hsa-miR-4696] registered a percent viability of 92.5%. The “5+ nucleoli phenotype percent effect” value in data set [2] is -15.7%. In addition, the “one-nucleolus phenotype percent effect” value in data set [3] is -7.62%.
Taken in the same sequence, the figures for “UGCACAUGGCAACCUAGCUCCCA [hsa-miR-5589-3p]” were 45.2%, -1.16% and 6.29%.
Taken in the same sequence, the figures for “UGCACCAUGGUUGUCUGAGCAUG [hsa-miR-767-5p]” were 65.4%, 8.28% and -10.3%.
In turn, UGCACGGCACUGGGGACACGU [hsa-miR-3177-3p] gave a percent viability in data set [1] of 20.3%. Besides, the “5+ nucleoli phenotype percent effect” value in data set [2] is -18%. Further, in data set [3], the “one-nucleolus phenotype percent effect” value was 33.1%.
Taken in the same sequence, the figures for UGCAGCUCUGGUGGAAAAUGGAG [hsa-miR-4660] were 43.5%, -12.2% and 1.97%.
Taken in the same sequence, the figures for UGCAGGACCAAGAUGAGCCCU [hsa-miR-1286] were 35.9%, 1.93% and 5.46%.
Taken in the same sequence, the figures for “UGCAGGGGUCGGGUGGGCCAGG [hsa-miR-6722-3p]” were 45.7%, -25.2% and 9%.
As for “UGCAUCACAGCCUUUGGCCCUAG [hsa-miR-7112-3p]”, the percent viability in data set [1] was 45.8%. In addition, the “5+ nucleoli phenotype percent effect” value in data set [2] is 45.4%. Also, the “one-nucleolus phenotype percent effect” value in data set [3] was -28%.
Turning to “UGCAUCAGGCCAGAAGACAUGAG [hsa-miR-4711-5p]”, the percent viability in data set [1] worked out at 23.9%. In data set [2], the “5+ nucleoli phenotype percent effect” value was -36.8%. Besides, the “one-nucleolus phenotype percent effect” value in data set [3] came to 12.6%.
Taken in the same sequence, the figures for “UGCAUGACCCUUCCCUCCCCAC [hsa-miR-6797-3p]” were 31.8%, -8.08% and 1.95%.
On the same counts, the results for UGCCAACCGUCAGAGCCCAGA [hsa-miR-5189-3p] are 59.9%, -12% and -1.7%.
Taken in the same sequence, the figures for UGCCCAUGCCAUACUUUUGCCUCA [hsa-miR-4641] were 78.6%, 7.52% and 5.53%.
Turning to “UGCCCCAACAAGGAAGGACAAG [hsa-miR-5699-5p]”, the percent viability in data set [1] turned out to be 43.1%. Further, the “5+ nucleoli phenotype percent effect” value in data set [2] was determined as 43.5%. Moreover, the “one-nucleolus phenotype percent effect” value in data set [3] was -18.9%.
As to “UGCCCCACCUGCUGACCACCCUC [hsa-miR-4758-3p]”, the percent viability in data set [1] turned out to be 76.4%. Moreover, the “5+ nucleoli phenotype percent effect” value in data set [2] is 31.8%. Also, the “one-nucleolus phenotype percent effect” value in data set [3] is -20.9%.
In turn, “UGCCCCAUCUGUGCCCUGGGUAGGA [hsa-miR-3189-5p]” returned a percent viability in data set [1] of 52.5%. Also, in data set [2], the “5+ nucleoli phenotype percent effect” value was found to be 42.8%. For the same sequence, in data set [3], the “one-nucleolus phenotype percent effect” value stood at 1.04%.
The sequence UGCCCUAAAUGCCCCUUCUGGC [hsa-miR-18b-3p] yielded a percent viability in data set [1] of 98.8%. The “5+ nucleoli phenotype percent effect” value in data set [2] is -9.28%. The “one-nucleolus phenotype percent effect” value in data set [3] was -2.3%.
In turn, UGCCCUCCUUUCUUCCCUC [hsa-miR-4290] yielded a percent viability in data set [1] of 21.6%. The “5+ nucleoli phenotype percent effect” value in data set [2] is -8.55%. Also, the “one-nucleolus phenotype percent effect” value in data set [3] was -1.5%.
Taken in the same sequence, the figures for UGCCCUGAGACUUUUGCUC [hsa-miR-7976] were 40.8%, -8.65% and 17.4%.

The record behind these values is the supplement of paper PMC10899765.
